Consider one molecule from US20130065832A1 (WASHINGTON UNIVERSITY, published 2013).

The target of assay [1] is T1, MOR1 (endogenous, mouse spinal cord) (mouse, UniProt P42866 1-398).
T1 construct: Untagged native receptor; precipitated with a rabbit anti-MOR1 antibody (Neuromics)
Put plainly: co-IP with anti-MOR1 antibody from spinal cord membrane preparation, immunoblot for GRPR.

Assay [2] addresses T2, MOR1D (endogenous, mouse spinal cord) (mouse, UniProt P42866-9 1-393).
T2 construct: Untagged native receptor in spinal cord membrane preparations and sections; MOR1D is a splice isoform of it; also called spinal MOR1D
Put plainly: co-IP with anti-MOR1D antibody from spinal cord membrane preparation, immunoblot for GRPR. A general note: A western blot detects proteins with antibodies after separation by electrophoresis.

T2 sequence (P42866 1-386, tags or fused parts left off): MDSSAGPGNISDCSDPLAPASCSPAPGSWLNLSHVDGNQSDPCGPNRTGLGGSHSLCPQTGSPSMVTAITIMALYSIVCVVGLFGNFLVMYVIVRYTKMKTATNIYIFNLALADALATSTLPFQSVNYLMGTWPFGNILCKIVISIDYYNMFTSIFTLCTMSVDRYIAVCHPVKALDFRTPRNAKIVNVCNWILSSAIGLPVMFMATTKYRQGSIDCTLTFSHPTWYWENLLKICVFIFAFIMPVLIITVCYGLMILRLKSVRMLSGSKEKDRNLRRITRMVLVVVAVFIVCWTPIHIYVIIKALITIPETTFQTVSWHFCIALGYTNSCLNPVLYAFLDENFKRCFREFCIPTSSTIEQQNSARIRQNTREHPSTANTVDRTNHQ
T1 sequence (P42866 whole entry): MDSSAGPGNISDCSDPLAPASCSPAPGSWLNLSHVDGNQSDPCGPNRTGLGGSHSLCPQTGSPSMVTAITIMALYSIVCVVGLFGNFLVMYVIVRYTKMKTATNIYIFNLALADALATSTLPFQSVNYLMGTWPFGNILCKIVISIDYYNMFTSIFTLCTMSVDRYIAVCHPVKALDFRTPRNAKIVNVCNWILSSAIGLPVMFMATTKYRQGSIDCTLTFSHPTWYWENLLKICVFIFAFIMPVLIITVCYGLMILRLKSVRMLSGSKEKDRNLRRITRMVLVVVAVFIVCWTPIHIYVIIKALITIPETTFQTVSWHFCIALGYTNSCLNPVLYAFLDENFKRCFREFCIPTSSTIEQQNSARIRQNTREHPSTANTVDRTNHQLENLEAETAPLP

B1: GRPR (endogenous, mouse spinal cord) (receptor, UniProt P21729 1-384, looked up)
chain: MAPNNCSHLNLDVDPFLSCNDTFNQSLSPPKMDNWFHPGFIYVIPAVYGLIIVIGLIGNITLIKIFCTVKSMRNVPNLFISSLALGDLLLLVTCAPVDASKYLADRWLFGRIGCKLIPFIQLTSVGVSVFTLTALSADRYKAIVRPMDIQASHALMKICLKAALIWIVSMLLAIPEAVFSDLHPFHVKDTNQTFISCAPYPHSNELHPKIHSMASFLVFYVIPLAIISVYYYFIARNLIQSAYNLPVEGNIHVKKQIESRKRLAKTVLVFVGLFAFCWLPNHVIYLYRSYHYSEVDTSMLHFVTSICARLLAFTNSCVNPFALYLLSKSFRKQFNTQLLCCQPGLMNRSHSTGRSTTCMTSFKSTNPSATFSLINRNICHEGYV
notes: Untagged native receptor in spinal cord membrane preparations; also called gastrin-releasing peptide receptor
B1: the binding result in assay [1] is on record as “no binding”; in assay [2] it was “binds”.
